From patent publication US20250019457A1 (IBIO, published 2025)
Read-outs that look alike come from different tables or passages of the source.

Columns and labels:
[1] = target: T1, human EpCAM (purified recombinant antigen, Acro Biosystems Cat #EPM-H5223) (human, UniProt P16422 24-265); test: SPR, Carterra LSA; antibody captured on anti-human IgG, antigen injected
T1 construct: Bought recombinant protein
T1 sequence: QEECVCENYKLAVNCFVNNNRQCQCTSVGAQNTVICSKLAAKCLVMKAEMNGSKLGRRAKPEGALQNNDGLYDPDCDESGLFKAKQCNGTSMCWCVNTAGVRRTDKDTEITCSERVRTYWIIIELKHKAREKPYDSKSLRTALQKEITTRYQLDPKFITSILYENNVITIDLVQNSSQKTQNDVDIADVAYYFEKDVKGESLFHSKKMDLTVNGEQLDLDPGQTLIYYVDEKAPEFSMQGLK

[2] = target: T2, mouse TROP2 (purified recombinant antigen, Acro Biosystems Cat #TR2-M52H6) (mouse, UniProt Q8BGV3 25-270); test: as above
T2 construct: Bought recombinant protein; also called msTROP2
T2 sequence: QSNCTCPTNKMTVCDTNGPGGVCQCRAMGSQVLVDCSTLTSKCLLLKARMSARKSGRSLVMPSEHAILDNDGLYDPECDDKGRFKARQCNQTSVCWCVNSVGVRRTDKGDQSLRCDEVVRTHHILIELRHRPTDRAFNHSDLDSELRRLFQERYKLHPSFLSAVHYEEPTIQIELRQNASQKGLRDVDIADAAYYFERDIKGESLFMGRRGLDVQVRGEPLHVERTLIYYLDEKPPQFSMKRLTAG

[3] = target: T3, human TROP2 (purified recombinant antigen, Acro Biosystems Cat #TR2-H5223) (human, UniProt P09758 27-274); test: MSD assay: biotinylated TROP2 on streptavidin plate, antibody titrated, anti-human SULFO-TAG detection
T3 construct: Bought recombinant protein; also called huTROP2
T3 sequence: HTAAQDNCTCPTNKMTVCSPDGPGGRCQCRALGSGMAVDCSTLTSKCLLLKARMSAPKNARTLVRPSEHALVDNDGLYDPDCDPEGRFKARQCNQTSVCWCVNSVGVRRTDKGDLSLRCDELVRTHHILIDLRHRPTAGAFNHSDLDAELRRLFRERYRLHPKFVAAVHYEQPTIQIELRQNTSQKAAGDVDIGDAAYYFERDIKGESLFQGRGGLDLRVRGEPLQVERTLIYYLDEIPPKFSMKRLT

[4] = target: T4, human Trop2 on cells (FaDu cells, endogenous; ExpiCHO cells overexpressing human Trop2) (human, UniProt P09758 27-323); test: flow cytometry on FaDu cells (endogenous human Trop2); average of n=1-3 experiments
T4 construct: Cell-surface form
T4 sequence: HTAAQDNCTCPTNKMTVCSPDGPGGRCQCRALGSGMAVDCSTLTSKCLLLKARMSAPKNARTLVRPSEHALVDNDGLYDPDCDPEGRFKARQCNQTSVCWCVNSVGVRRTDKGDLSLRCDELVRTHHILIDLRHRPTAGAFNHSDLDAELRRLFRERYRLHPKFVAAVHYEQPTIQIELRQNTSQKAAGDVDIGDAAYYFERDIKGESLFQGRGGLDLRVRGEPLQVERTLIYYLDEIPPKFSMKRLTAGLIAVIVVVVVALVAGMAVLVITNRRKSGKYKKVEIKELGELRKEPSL

[5] = target: T3, human TROP2 (purified recombinant …); test: SPR, Carterra LSA; antibody captured on anti-human IgG, antigen injected; 1:1 fit
[6] = target: T5, cynomolgus/rhesus TROP2 (purified recombinant antigen, Acro Biosystems Cat #TR2-R52H3) (cynomolgus/rhesus, UniProt P09758 27-274 (human entry)); test: as above
T5 construct: Bought recombinant protein; also called cyTROP2; cyno/rhesus TROP2
T5 chain: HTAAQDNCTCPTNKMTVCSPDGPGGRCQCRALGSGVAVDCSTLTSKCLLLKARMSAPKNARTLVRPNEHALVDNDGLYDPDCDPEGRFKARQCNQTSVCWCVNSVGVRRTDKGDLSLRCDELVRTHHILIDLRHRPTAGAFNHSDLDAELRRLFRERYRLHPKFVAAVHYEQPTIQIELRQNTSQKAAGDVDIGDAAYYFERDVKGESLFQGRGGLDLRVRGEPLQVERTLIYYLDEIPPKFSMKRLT

[7] = target: T3, human TROP2 (purified recombinant …); test: as above; remark: listed apart in the source
[8] = target: T6, recombinant CD3ϵδ-HRP heterodimer (Acro Biosystems CDD-HR2W3) (Homo sapiens (Human), UniProt P07766 23-126; P04234 22-105, Conjugated to horseradish peroxidase (HRP). The site and chemistry are not stated and the letters do not carry it.); test: direct ELISA: antibody coated at 5 ug/mL, CD3ϵδ-HRP titrated (the axis is the CD3ϵδ-HRP concentration), absorbance at 450 nm
T6 construct: Bought HRP conjugate; also called CD3ϵδ heterodimer; not shown: The HRP conjugate and any vendor tags or fusion partners on the two chains (Acro Biosystems CDD-HR2W3); copies: 1 + 1

[9] = target: T2, mouse TROP2 (purified recombinant …); test: SPR, Carterra LSA; ratio of KD values, reference huTROP2
[10] = target: T7, mouse Trop2 on ExpiCHO cells overexpressing mouse Trop2 (mouse, UniProt Q8BGV3 25-317); test: flow cytometry on ExpiCHO cells overexpressing mouse Trop2, percent of cells bound
T7 construct: Cell-surface form
T7 sequence: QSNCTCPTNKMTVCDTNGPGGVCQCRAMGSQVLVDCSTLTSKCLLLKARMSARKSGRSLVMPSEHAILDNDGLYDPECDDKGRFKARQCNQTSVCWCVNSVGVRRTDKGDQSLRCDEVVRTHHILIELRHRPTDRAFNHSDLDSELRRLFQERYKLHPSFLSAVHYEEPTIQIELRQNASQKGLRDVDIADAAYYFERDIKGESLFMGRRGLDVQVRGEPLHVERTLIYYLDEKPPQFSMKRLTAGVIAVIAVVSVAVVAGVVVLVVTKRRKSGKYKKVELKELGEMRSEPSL

[11] = target: T2, mouse TROP2 (purified recombinant …); test: SPR, Carterra LSA; antibody captured on anti-human IgG, antigen injected; 1:1 fit
[12] = target: T4, human Trop2 on cells (FaDu cells, …); test: flow cytometry on ExpiCHO cells overexpressing human Trop2, percent of cells bound

T6 sequence (P07766 23-126 limits assumed, stated change not applied, chain 1 of 2): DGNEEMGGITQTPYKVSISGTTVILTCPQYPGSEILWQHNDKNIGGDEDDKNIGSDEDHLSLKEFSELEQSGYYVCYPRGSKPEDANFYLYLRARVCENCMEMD
T6 sequence (P04234 22-105 limits assumed, stated change not applied, chain 2 of 2): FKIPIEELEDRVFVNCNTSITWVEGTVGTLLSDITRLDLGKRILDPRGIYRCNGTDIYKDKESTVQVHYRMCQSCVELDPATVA

Binder	binding result [1]	binding result [2]	EC50 (read off the curve) [3] [nM]	EC50 [4] [nM]	Kd [5] [nM]	Kd [6] [nM]	Kd [7] [nM]	koff [7] [s⁻¹]	kon [7] [M⁻¹ s⁻¹]	EC50 (read off the curve) [8] [mg/L]	Fold difference in affinity (huTROP2:msTROP2) [9] [fold]	EC50 (read off the curve) [10] [nM]	Kd [11] [nM]	EC50 (read off the curve) [12] [nM]
SD-661765 (antibody, V domains shown, Mouse/human chimera) VH: QVQLVETGGDLVKPGGSLKLSCAASGFTFSTYGMSWVRQTPDKRLEWVATISSGGIYTYYSDSVKGRFTISRDNAKNTLYLQMSSLKSEDTAMYYCARDGNYLGFDFWGQGTTLTVSS VL: DIVMTQSPASLAVSLGQRATISCRASESVESYGNSFMNWYQQKPGQPPKLLIYRASNLESGIPARFSGSGSRTDFTLTINPVEADDVATYYCQQSYEDPRTFGGGTKLEIK	no binding (tested: 1 µM top concentration)	no binding (tested: 1 µM top concentration)	~0.2	1.07	1.65	1.82	1.65	0.000574	348000	–	–	–	–	–
Gen 1 (antibody, V domains shown, also called CD3 Gen 1; Gen1 CD3) VH: EVQLVESGGGLVQPGGSLRLSCAASGFTFNTYAMNWVRQAPGKGLEWVGRIRSKYNNYATYYADSVKGRFTISRDDSKNTLYLQMNSLRAEDTAVYYCVRHGNFGNSYVSWFAYWGQGTLVTVSS VL: DIQMTQSPSSLSASVGDRVTITCRSSTGAVTTSNYANWVQQKPGKAPKGLIGGTNKRAPGVPARFSGSGSGTDFTLTISSLQPEDFATYYCALWYSNLWVFGQGTKVEIK	–	–	–	–	–	–	–	–	–	~0.04	–	–	–	–
SD-813149 (antibody, V domains shown, Mouse/human chimera) VH: EVKLDESGGGLVKPGGSLKLSCAASGFTFSSYTMSWVRQTPEKRLEWVATINSDGIYTYYPDSVKGRFTISRDNAKNTLYLQMSSLKSEDTAMYYCTRVHYYGYDAMDYWGQGTSVTVSS VL: EIQMTQSPASLSASVGETVTITCRASENIYSYLAWYQQKQGKSPQLLVYSAKTLAEGVPSRFSGSGSGTHFSLKINSLQPEDFGSYYCQHHYGIPLTFGAGTKLELK	no binding (tested: 1 µM top concentration)	no binding (tested: 1 µM top concentration)	~0.2	2.19	0.43	0.38	0.43	0.000163	377000	–	–	–	–	–
SD-175533 (antibody, V domains shown, Mouse/human chimera) VH: QIQLQESGPGLMKPSQSLSLTCTVTGYSITSDYAWNWIRQFPGNKLEWMGHITYSGSTSYNPSLKSRISISRDTSKNQFFLQLNSVTTGDTATYYCARGGSTLISGDFDYWGQGTTLTVSS VL: DIVLTQSHKFMSTSVGDRVSITCKASQDVSTAVAWYQQKPGQSPKLLIYSASYRYTGVPDRFTGSGSGTDFTFTISSVQAEDLAVYYCQQHYSTPLTFGAGTKLELK	no binding (tested: 1 µM top concentration)	no binding (tested: 1 µM top concentration)	~0.3	2.36	0.2	0.1	0.2	3.96e-05	197000	–	–	–	–	–
SD-025096 (antibody, V domains shown, Mouse/human chimera; also called Human IgG1 SD-025096) VH: QVQLQQSGAELVRPGASVKLSCKASGYTFTSYWINWVKQRPGQGLEWIGNIFPSGSYTNYNQKFKDRATLTVDKSSSTAFMQLSSPTSEDSAIYFCTRGSGFDYWGQGTTLTVSS VL: DIVLTQSPATLSVTPGDSVSLSCRASQSISNNLHWYQQKSHESPRLLIKYASQSISGIPSRFSGSGSGTDFTLSINSVETEDFGMYFCQQSNSWPFTFGSGTKLEIK	no binding (tested: 1 µM top concentration)	no binding (tested: 1 µM top concentration)	~0.2	1.99	5.47	6.55	5.47	0.00165	301000	–	–	–	–	–
SD-530939 (antibody, V domains shown, Chicken/human chimera) VH: AVTLDESGGGLQTPGGGLSLVCKASGFDFIDYDMFWVRQAPGKGLEWVGVINRSGSYTNYAPAVKGRATISRDNGQSTLRLQLNNLRAEDTGTYYCARGACTHCWDADSAGYIDAWGHGTEVIVSS VL: ALALTQPSSVSANPGETVKITCSGGYSGYGWYQQKSPGSAPVTVIYWNDKRPSNIPSRFSGSLSGSTNTLIITGVQAEDEAVYFCGGYDSSPGYVGIFGAGTTLTVL	no binding (tested: 1 µM top concentration)	–	~0.2	0.673	0.46	0.6	0.46	0.000155	337000	–	2.1	~0.02	0.96	~0.02
SD-802432 (antibody, V domains shown, Chicken/human chimera) VH: AVTLDESGGGLQTPGGGLSLVCKASGFDFIDYDMFWVRQAPGKGLEWVAVINRSGSYTNYAPAVKGRATISRDNGQSTLRLQLNNLRAEDTGTYYCARGACTHCWDADSAGYIDTWGHGTEVIVSS VL: ALALTQPSSVSANPGETVKITCSGGSGSYGWFQQKSPGIAPVIVIFNDDNRPSDIPSRFSGSKSGSTGTLTITGVQAEDEAVYFCGGYDGSTDAGIFGAGTTLTVL	no binding (tested: 1 µM top concentration)	–	~0.2	0.738	0.1	0.13	0.1	5.53e-05	542000	–	2.9	~0.02	0.3	~0.02
